Test results as given in the supplement of paper PMC9428881.
± gives the standard error.

Test: background-corrected fluorescence of 3'-dye-labeled ssDNA relative to brightest sequence (3'-GCGCG) (fraction); higher = brighter dye fluorescence (less quenching)
Summary of the method: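 Fluorescence values are background-corrected using unlabeled oligos and expressed relative to the brightest sequence. The single-stranded DNA was made on glass slides by light-directed phosphoramidite synthesis, each of 1024 permuted pentamers ending beside a 3' Cy3 or Cy5 dye. Scans at 532 or 635 nm were taken before and after overnight ethylenediamine/ethanol deprotection, and each value averages 10 features per array and at least 3 syntheses.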

TTTTTGCATCATGCTGAGCATTTTTTTTTTTTTTTTGACT [TCAGT]
background-corrected fluorescence (dye: Cy3 (3' terminal)): 0.473 ± 0.034
background-corrected fluorescence (dye: Cy5 (3' terminal)): 0.357 ± 0.022

TTTTTTGCTCATCATGCTCATTTTTTTTTTTTTTTAGGAG [GAGGA]
background-corrected fluorescence (dye: Cy3 (3' terminal)): 0.597 ± 0.023
background-corrected fluorescence (dye: Cy5 (3' terminal)): 0.507 ± 0.034

TTTTTTGCTCATCATCAGCATTTTTTTTTTTTTTTAGGGT [TGGGA]
background-corrected fluorescence (dye: Cy3 (3' terminal)): 0.7155 ± 0.0051
background-corrected fluorescence (dye: Cy5 (3' terminal)): 0.587 ± 0.027

TTTTTGCATCATGCTGCGCATTTTTTTTTTTTTTTTGAAT [TAAGT]
background-corrected fluorescence (dye: Cy3 (3' terminal)): 0.558 ± 0.032
background-corrected fluorescence (dye: Cy5 (3' terminal)): 0.436 ± 0.035

TTTTTTCATGCTGATCATGCTTTTTTTTTTTTTTTGACGA [AGCAG]
background-corrected fluorescence (dye: Cy3 (3' terminal)): 0.642 ± 0.026
background-corrected fluorescence (dye: Cy5 (3' terminal)): 0.52 ± 0.025

TTTTTGCAGCAGCATGATCATTTTTTTTTTTTTTTTTTCG [GCTTT]
background-corrected fluorescence (dye: Cy3 (3' terminal)): 0.468 ± 0.011
background-corrected fluorescence (dye: Cy5 (3' terminal)): 0.327 ± 0.027

TTTTTGCAGCATCATGATGATTTTTTTTTTTTTTTTTGCC [CCGTT]
background-corrected fluorescence (dye: Cy3 (3' terminal)): 0.41 ± 0.015
background-corrected fluorescence (dye: Cy5 (3' terminal)): 0.322 ± 0.059

TTTTTTGATGCTGATGAGCATTTTTTTTTTTTTTTCACCT [TCCAC]
background-corrected fluorescence (dye: Cy3 (3' terminal)): 0.457 ± 0.021
background-corrected fluorescence (dye: Cy5 (3' terminal)): 0.326 ± 0.03

TTTTTTCATGCTCATCATGCTTTTTTTTTTTTTTTGAGGA [AGGAG]
background-corrected fluorescence (dye: Cy3 (3' terminal)): 0.747 ± 0.023
background-corrected fluorescence (dye: Cy5 (3' terminal)): 0.669 ± 0.059

TTTTTTCATCATGATCAGCATTTTTTTTTTTTTTTGGCGT [TGCGG]
background-corrected fluorescence (dye: Cy3 (3' terminal)): 0.643 ± 0.035
background-corrected fluorescence (dye: Cy5 (3' terminal)): 0.558 ± 0.057

TTTTTTGCTGATCATCAGCATTTTTTTTTTTTTTTACGGT [TGGCA]
background-corrected fluorescence (dye: Cy3 (3' terminal)): 0.664 ± 0.018
background-corrected fluorescence (dye: Cy5 (3' terminal)): 0.565 ± 0.045

TTTTTTGCTGAGCATGCGCATTTTTTTTTTTTTTTACTAT [TATCA]
background-corrected fluorescence (dye: Cy3 (3' terminal)): 0.531 ± 0.012
background-corrected fluorescence (dye: Cy5 (3' terminal)): 0.392 ± 0.021

TTTTTGCATGCTGCTGAGCATTTTTTTTTTTTTTTTAACT [TCAAT]
background-corrected fluorescence (dye: Cy3 (3' terminal)): 0.492 ± 0.02
background-corrected fluorescence (dye: Cy5 (3' terminal)): 0.353 ± 0.027

TTTTTGCAGCATCAGCATGCTTTTTTTTTTTTTTTTTGTA [ATGTT]
background-corrected fluorescence (dye: Cy3 (3' terminal)): 0.576 ± 0.02
background-corrected fluorescence (dye: Cy5 (3' terminal)): 0.487 ± 0.053

TTTTTTCATGAGCATGAGCATTTTTTTTTTTTTTTGCTCT [TCTCG]
background-corrected fluorescence (dye: Cy3 (3' terminal)): 0.497 ± 0.015
background-corrected fluorescence (dye: Cy5 (3' terminal)): 0.337 ± 0.023

TTTTTTGATCATCATGAGCATTTTTTTTTTTTTTTCGGCT
background-corrected fluorescence (dye: Cy3 (3' terminal)): 0.583 ± 0.016
background-corrected fluorescence (dye: Cy5 (3' terminal)): 0.431 ± 0.021

TTTTTTGCGCATGCTCATGCTTTTTTTTTTTTTTTATAGA [AGATA]
background-corrected fluorescence (dye: Cy3 (3' terminal)): 0.602 ± 0.037
background-corrected fluorescence (dye: Cy5 (3' terminal)): 0.489 ± 0.045

TTTTTTGATGATGATGATGCTTTTTTTTTTTTTTTCCCCA [ACCCC]
background-corrected fluorescence (dye: Cy3 (3' terminal)): 0.423 ± 0.023
background-corrected fluorescence (dye: Cy5 (3' terminal)): 0.352 ± 0.021

TTTTTTGCTGCGCAGCAGCATTTTTTTTTTTTTTTAATTT
background-corrected fluorescence (dye: Cy3 (3' terminal)): 0.559 ± 0.029
background-corrected fluorescence (dye: Cy5 (3' terminal)): 0.39 ± 0.025

TTTTTTCATGCTGATGCTCATTTTTTTTTTTTTTTGACAG
background-corrected fluorescence (dye: Cy3 (3' terminal)): 0.547 ± 0.023
background-corrected fluorescence (dye: Cy5 (3' terminal)): 0.423 ± 0.036

TTTTTGCAGCATGCTGCTGCTTTTTTTTTTTTTTTTTAAA [AAATT]
background-corrected fluorescence (dye: Cy3 (3' terminal)): 0.63 ± 0.021
background-corrected fluorescence (dye: Cy5 (3' terminal)): 0.487 ± 0.042

TTTTTTGCTGATGCGCAGCATTTTTTTTTTTTTTTACATT
background-corrected fluorescence (dye: Cy3 (3' terminal)): 0.546 ± 0.011
background-corrected fluorescence (dye: Cy5 (3' terminal)): 0.384 ± 0.021

TTTTTGCAGCATGCTGCTGATTTTTTTTTTTTTTTTTAAC [CAATT]
background-corrected fluorescence (dye: Cy3 (3' terminal)): 0.408 ± 0.011
background-corrected fluorescence (dye: Cy5 (3' terminal)): 0.314 ± 0.026

TTTTTTGAGCAGCATGCTGCTTTTTTTTTTTTTTTCTTAA [AATTC]
background-corrected fluorescence (dye: Cy3 (3' terminal)): 0.562 ± 0.019
background-corrected fluorescence (dye: Cy5 (3' terminal)): 0.427 ± 0.039

TTTTTTCATGATGCTGCTGCTTTTTTTTTTTTTTTGCAAA [AAACG]
background-corrected fluorescence (dye: Cy3 (3' terminal)): 0.599 ± 0.028
background-corrected fluorescence (dye: Cy5 (3' terminal)): 0.497 ± 0.03

TTTTTGCATCATCATCATCATTTTTTTTTTTTTTTTGGGG [GGGGT]
background-corrected fluorescence (dye: Cy3 (3' terminal)): 0.66 ± 0.023
background-corrected fluorescence (dye: Cy5 (3' terminal)): 0.613 ± 0.042

TTTTTTCATGATGCGCATCATTTTTTTTTTTTTTTGCATG [GTACG]
background-corrected fluorescence (dye: Cy3 (3' terminal)): 0.508 ± 0.023
background-corrected fluorescence (dye: Cy5 (3' terminal)): 0.385 ± 0.023

TTTTTTCAGCATCATGAGCATTTTTTTTTTTTTTTGTGCT [TCGTG]
background-corrected fluorescence (dye: Cy3 (3' terminal)): 0.504 ± 0.024
background-corrected fluorescence (dye: Cy5 (3' terminal)): 0.414 ± 0.05

TTTTTGCATCATGCTGCTCATTTTTTTTTTTTTTTTGAAG [GAAGT]
background-corrected fluorescence (dye: Cy3 (3' terminal)): 0.564 ± 0.02
background-corrected fluorescence (dye: Cy5 (3' terminal)): 0.44 ± 0.024

TTTTTTCATCAGCATCATCATTTTTTTTTTTTTTTGGTGG
background-corrected fluorescence (dye: Cy3 (3' terminal)): 0.629 ± 0.028
background-corrected fluorescence (dye: Cy5 (3' terminal)): 0.483 ± 0.055

TTTTTTGATCATCATGATGATTTTTTTTTTTTTTTCGGCC [CCGGC]
background-corrected fluorescence (dye: Cy3 (3' terminal)): 0.465 ± 0.022
background-corrected fluorescence (dye: Cy5 (3' terminal)): 0.364 ± 0.027

TTTTTTGAGCAGCATCATCATTTTTTTTTTTTTTTCTTGG [GGTTC]
background-corrected fluorescence (dye: Cy3 (3' terminal)): 0.631 ± 0.038
background-corrected fluorescence (dye: Cy5 (3' terminal)): 0.47 ± 0.05

TTTTTTCATCATGCTGATGATTTTTTTTTTTTTTTGGACC [CCAGG]
background-corrected fluorescence (dye: Cy3 (3' terminal)): 0.446 ± 0.022
background-corrected fluorescence (dye: Cy5 (3' terminal)): 0.317 ± 0.023

TTTTTTGATGCTGCTCAGCATTTTTTTTTTTTTTTCAAGT [TGAAC]
background-corrected fluorescence (dye: Cy3 (3' terminal)): 0.629 ± 0.0081
background-corrected fluorescence (dye: Cy5 (3' terminal)): 0.478 ± 0.039

TTTTTGCATGCTGATGCTCATTTTTTTTTTTTTTTTACAG [GACAT]
background-corrected fluorescence (dye: Cy3 (3' terminal)): 0.499 ± 0.036
background-corrected fluorescence (dye: Cy5 (3' terminal)): 0.413 ± 0.03

TTTTTTGCTGATCATGCTGCTTTTTTTTTTTTTTTACGAA [AAGCA]
background-corrected fluorescence (dye: Cy3 (3' terminal)): 0.575 ± 0.032
background-corrected fluorescence (dye: Cy5 (3' terminal)): 0.452 ± 0.026

TTTTTTGATGATCATGCTCATTTTTTTTTTTTTTTCCGAG [GAGCC]
background-corrected fluorescence (dye: Cy3 (3' terminal)): 0.593 ± 0.015
background-corrected fluorescence (dye: Cy5 (3' terminal)): 0.501 ± 0.072

TTTTTTGAGCATCAGCAGCATTTTTTTTTTTTTTTCTGTT [TTGTC]
background-corrected fluorescence (dye: Cy3 (3' terminal)): 0.541 ± 0.023
background-corrected fluorescence (dye: Cy5 (3' terminal)): 0.411 ± 0.033

TTTTTTGATGCTGATCATGATTTTTTTTTTTTTTTCACGC [CGCAC]
background-corrected fluorescence (dye: Cy3 (3' terminal)): 0.536 ± 0.021
background-corrected fluorescence (dye: Cy5 (3' terminal)): 0.438 ± 0.036

TTTTTGCATGCTCATGAGCATTTTTTTTTTTTTTTTAGCT [TCGAT]
background-corrected fluorescence (dye: Cy3 (3' terminal)): 0.57 ± 0.025
background-corrected fluorescence (dye: Cy5 (3' terminal)): 0.42 ± 0.035

TTTTTTGCTCAGCATGCTGATTTTTTTTTTTTTTTAGTAC [CATGA]
background-corrected fluorescence (dye: Cy3 (3' terminal)): 0.485 ± 0.006
background-corrected fluorescence (dye: Cy5 (3' terminal)): 0.371 ± 0.027

TTTTTTGATGATGCGCATGCTTTTTTTTTTTTTTTCCATA [ATACC]
background-corrected fluorescence (dye: Cy3 (3' terminal)): 0.488 ± 0.015
background-corrected fluorescence (dye: Cy5 (3' terminal)): 0.38 ± 0.033

TTTTTTGATGCGCATCATGATTTTTTTTTTTTTTTCATGC [CGTAC]
background-corrected fluorescence (dye: Cy3 (3' terminal)): 0.536 ± 0.028
background-corrected fluorescence (dye: Cy5 (3' terminal)): 0.395 ± 0.026

TTTTTTCATGATGATGATGCTTTTTTTTTTTTTTTGCCCA [ACCCG]
background-corrected fluorescence (dye: Cy3 (3' terminal)): 0.479 ± 0.026
background-corrected fluorescence (dye: Cy5 (3' terminal)): 0.389 ± 0.058

TTTTTTGATCATGCTGCTCATTTTTTTTTTTTTTTCGAAG [GAAGC]
background-corrected fluorescence (dye: Cy3 (3' terminal)): 0.609 ± 0.013
background-corrected fluorescence (dye: Cy5 (3' terminal)): 0.463 ± 0.021

TTTTTTGCTGCTGATGAGCATTTTTTTTTTTTTTTAACCT [TCCAA]
background-corrected fluorescence (dye: Cy3 (3' terminal)): 0.459 ± 0.016
background-corrected fluorescence (dye: Cy5 (3' terminal)): 0.36 ± 0.039

TTTTTTGCTGCTCATCAGCATTTTTTTTTTTTTTTAAGGT [TGGAA]
background-corrected fluorescence (dye: Cy3 (3' terminal)): 0.658 ± 0.016
background-corrected fluorescence (dye: Cy5 (3' terminal)): 0.585 ± 0.052

TTTTTTCAGCATGCGCATGCTTTTTTTTTTTTTTTGTATA [ATATG]
background-corrected fluorescence (dye: Cy3 (3' terminal)): 0.55 ± 0.031
background-corrected fluorescence (dye: Cy5 (3' terminal)): 0.404 ± 0.027

TTTTTGCATGCGCAGCATGATTTTTTTTTTTTTTTTATTC [CTTAT]
background-corrected fluorescence (dye: Cy3 (3' terminal)): 0.394 ± 0.023
background-corrected fluorescence (dye: Cy5 (3' terminal)): 0.292 ± 0.018

TTTTTTCATGCTGCTGAGCATTTTTTTTTTTTTTTGAACT [TCAAG]
background-corrected fluorescence (dye: Cy3 (3' terminal)): 0.5 ± 0.016
background-corrected fluorescence (dye: Cy5 (3' terminal)): 0.36 ± 0.025

TTTTTGCATCATGATCATGATTTTTTTTTTTTTTTTGCGC [CGCGT]
background-corrected fluorescence (dye: Cy3 (3' terminal)): 0.596 ± 0.02
background-corrected fluorescence (dye: Cy5 (3' terminal)): 0.48 ± 0.034
